Consider one molecule from patent publication US20020099177A1 (Human Genome Sciences, published 2002).

The assay addresses T1, IL-1 receptor type I (Flag-IL-1RI) (human, UniProt P14778 18-569).
T1 construct: not shown: Flag tag from pCMV-1-Flag expression vector
T1 sequence (looked up): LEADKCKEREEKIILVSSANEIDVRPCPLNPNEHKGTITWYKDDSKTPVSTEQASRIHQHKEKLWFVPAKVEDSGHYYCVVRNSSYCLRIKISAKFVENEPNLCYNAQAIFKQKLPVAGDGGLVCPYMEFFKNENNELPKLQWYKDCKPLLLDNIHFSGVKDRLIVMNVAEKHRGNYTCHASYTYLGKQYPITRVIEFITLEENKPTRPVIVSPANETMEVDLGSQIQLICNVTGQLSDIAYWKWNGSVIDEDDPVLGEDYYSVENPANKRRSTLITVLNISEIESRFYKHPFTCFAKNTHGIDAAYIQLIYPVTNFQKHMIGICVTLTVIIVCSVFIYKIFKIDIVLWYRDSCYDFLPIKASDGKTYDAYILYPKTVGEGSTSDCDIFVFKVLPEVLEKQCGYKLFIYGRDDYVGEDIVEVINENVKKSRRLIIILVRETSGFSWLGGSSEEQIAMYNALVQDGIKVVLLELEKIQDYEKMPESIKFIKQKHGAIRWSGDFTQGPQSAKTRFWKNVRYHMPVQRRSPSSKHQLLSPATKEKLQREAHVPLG
Description: coimmunoprecipitation from transfected 293/293T cell lysates. As to the method: The total amount of DNA was kept constant. 24-36 hours after transfection, cells were lysed in 0.5 ml buffer (1% NP40, 150 mM NaCl, 50 mM Tris, 1 mM EDTA and protease inhibitors cocktail). Cell lysates were adjusted to 0.7 M NaCl and the indicated antibodies were added for 1 to 4 hours. Immune complexes were precipitated by the addition of protein-G-Sepharose (Sigma). After extensive washing, the Sepharose heads were boiled in sample buffer and the eluted proteins fractionated by SDS-PAGE. Subsequent protein immunoblotting was performed as described (Chinnaiyan, A., et al., Cell 81:505-12 (1995)).

B1: IRAK-2 (97-590) (enzyme)
chain: PEIRCPIPAFPDSVKPEKPLAASVRKAEDEQEEGQPVRMATFPGPGSSPARAHQPAFLQPPEEDAPHSLRSDLPTSSDSKDFSTSIPKQEKLLSLAGDSLFWSEADVVQATDDFNQNRKISQGTFADVYRGHRHGKPFVFKKLRETACSSPGSIERFFQAELQICLRCCHPNVLPVLGFCAARQFHSFIYPYMANGSLQDRLQGQGGSEPLPWPQRVSICSGLLCAVEYLHGLEIIHSNVKSSNVLLDQNLTPKLAHPMAHLCPVNKRSKYTMMKTHLLRTSAAYLPEDFIRVGQLTKRVDIFSCGIVLAEVLTGIPAMDNNRSPVYLKDLLLSEIPSSTASLCSRKTGVENVMAKEICQKYLEKGAGRLPEDCAEALATAACLCLRRRNTSLQEVCGSVAAVEERLRGRETLLPWSGLSEGTGSSSNTPEETDDVDNSSLDASSSMSVAPWAGAATPLLPTENGEGRLRVIVGREADSSSEACVGLEPPQDVT
notes: Truncated IRAK-2 lacking the N-terminal domain (DD); also called IRAK-2 (97-590)-MyC; mutant version of IRAK-2 lacking the first 96 amino acid residues; not shown: C-terminal Myc(-His) tag from pCDNA3-MyC-His vector
For B1, the binding result was “no binding”.
